Source: EP4740967A1 (Shanghai Escugen Biotechnology Co., Ltd., dated 2026)

What was measured:
Experiment in all cases: cell-based or functional assay
human Claudin18.2 [1] = target: T1, human Claudin18.2 (human, UniProt P56856 1-261)
T1 sequence (looked up): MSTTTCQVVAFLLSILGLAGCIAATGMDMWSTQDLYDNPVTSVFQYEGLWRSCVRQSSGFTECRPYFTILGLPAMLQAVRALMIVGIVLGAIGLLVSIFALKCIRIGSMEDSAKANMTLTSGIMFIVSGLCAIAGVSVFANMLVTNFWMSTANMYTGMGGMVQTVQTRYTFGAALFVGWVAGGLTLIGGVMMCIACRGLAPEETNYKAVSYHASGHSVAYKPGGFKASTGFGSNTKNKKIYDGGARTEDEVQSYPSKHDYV

human Claudin18.2 [2] = target: T1, human Claudin18.2; remark: listed apart in the source
human Claudin18.2 [3] = target: T1, human Claudin18.2; remark: listed apart in the source
human Claudin18.2 [4] = target: T1, human Claudin18.2; remark: listed apart in the source

Binder | IC50 of in vitro cell killing on MC38-hClaudin18.2 cells (AlamarBlue cell viability) (human Claudin18.2 [1]) [nM] | IC50 of in vitro cell killing on NUGC4-hClaudin18.2 cells (CCK-8 cell viability, 120 h) (human Claudin18.2 [2]) [nM] | IC50 of in vitro cell killing on HEK293-hClaudin18.2 cells (AlamarBlue cell viability, 72 h) (human Claudin18.2 [3]) [nM] | IC50 of inhibition of proliferation of MC38-hClaudin18.2 cells (AlamarBlue cell viability, 72 h) (human Claudin18.2 [4]) [nM]
9D1-GGFG-Exatecan (antibody, human IgG1, kappa, V domains shown, MC-GGFG-Exatecan linker-drug on reduced interchain cysteines (Conjugation Method 1, DAR 8)) VH: QIQLVQSGAEVKKPGASVKISCKASGYSFTDYHMNWVRQAPGKGLEWIGNIDPYYGSPTYNHKFKGRVTLTVDTSTSTAYMELSSLRSEDTAVYYCANYGRGNSFPYWGQGTLVTVSS VL: DIVMTQSPSSLAVSLGERATINCKSSQSLLNSGNQRNYLTWYQQKPGQPPKLLIYWASTRESGVPDRFSGSGSGTDFTLTISSLQAEDVAVYYCQNDYSFPFTFGQGTKLEIKR | 11 | 0.184 |  | 
9D1-LD-31-P2 (antibody, human IgG1, kappa, V domains shown, LD-31-P2 linker-drug (Exatecan) on reduced interchain cysteines (Conjugation Method 1, DAR 8)) VH: QIQLVQSGAEVKKPGASVKISCKASGYSFTDYHMNWVRQAPGKGLEWIGNIDPYYGSPTYNHKFKGRVTLTVDTSTSTAYMELSSLRSEDTAVYYCANYGRGNSFPYWGQGTLVTVSS VL: DIVMTQSPSSLAVSLGERATINCKSSQSLLNSGNQRNYLTWYQQKPGQPPKLLIYWASTRESGVPDRFSGSGSGTDFTLTISSLQAEDVAVYYCQNDYSFPFTFGQGTKLEIKR | 2.91 |  |  | 
9D1-LD-31-P1 (antibody, human IgG1, kappa, V domains shown, LD-31-P1 linker-drug (Exatecan) on reduced interchain cysteines (Conjugation Method 1, DAR 8)) VH: QIQLVQSGAEVKKPGASVKISCKASGYSFTDYHMNWVRQAPGKGLEWIGNIDPYYGSPTYNHKFKGRVTLTVDTSTSTAYMELSSLRSEDTAVYYCANYGRGNSFPYWGQGTLVTVSS VL: DIVMTQSPSSLAVSLGERATINCKSSQSLLNSGNQRNYLTWYQQKPGQPPKLLIYWASTRESGVPDRFSGSGSGTDFTLTISSLQAEDVAVYYCQNDYSFPFTFGQGTKLEIKR | 4.35 |  |  | 
9D1-vc-PAB-MMAE (antibody, human IgG1, kappa, V domains shown, MC-VC-PAB-MMAE linker-drug on partially reduced interchain cysteines (Conjugation Method 2, DAR 4)) VH: QIQLVQSGAEVKKPGASVKISCKASGYSFTDYHMNWVRQAPGKGLEWIGNIDPYYGSPTYNHKFKGRVTLTVDTSTSTAYMELSSLRSEDTAVYYCANYGRGNSFPYWGQGTLVTVSS VL: DIVMTQSPSSLAVSLGERATINCKSSQSLLNSGNQRNYLTWYQQKPGQPPKLLIYWASTRESGVPDRFSGSGSGTDFTLTISSLQAEDVAVYYCQNDYSFPFTFGQGTKLEIKR | 0.407 | 0.064 |  | 
9D1-ELC122 (antibody, human IgG1, kappa, V domains shown, ELC122 linker-drug (SN38) on reduced interchain cysteines (Conjugation Method 1, DAR 8)) VH: QIQLVQSGAEVKKPGASVKISCKASGYSFTDYHMNWVRQAPGKGLEWIGNIDPYYGSPTYNHKFKGRVTLTVDTSTSTAYMELSSLRSEDTAVYYCANYGRGNSFPYWGQGTLVTVSS VL: DIVMTQSPSSLAVSLGERATINCKSSQSLLNSGNQRNYLTWYQQKPGQPPKLLIYWASTRESGVPDRFSGSGSGTDFTLTISSLQAEDVAVYYCQNDYSFPFTFGQGTKLEIKR |  |  | 0.628 | 
9D1-LD-73 (antibody, human IgG1, kappa, V domains shown, LD-73 linker-drug (Exatecan, PEG side chain) on reduced interchain cysteines (Conjugation Method 1, DAR 8)) VH: QIQLVQSGAEVKKPGASVKISCKASGYSFTDYHMNWVRQAPGKGLEWIGNIDPYYGSPTYNHKFKGRVTLTVDTSTSTAYMELSSLRSEDTAVYYCANYGRGNSFPYWGQGTLVTVSS VL: DIVMTQSPSSLAVSLGERATINCKSSQSLLNSGNQRNYLTWYQQKPGQPPKLLIYWASTRESGVPDRFSGSGSGTDFTLTISSLQAEDVAVYYCQNDYSFPFTFGQGTKLEIKR | 1.4 | 1.27 |  | 
9D1-LD-88 (antibody, human IgG1, kappa, V domains shown, LD-88 linker-drug (Exatecan) on reduced interchain cysteines (Conjugation Method 1; DAR printed as 1 in Table 1)) VH: QIQLVQSGAEVKKPGASVKISCKASGYSFTDYHMNWVRQAPGKGLEWIGNIDPYYGSPTYNHKFKGRVTLTVDTSTSTAYMELSSLRSEDTAVYYCANYGRGNSFPYWGQGTLVTVSS VL: DIVMTQSPSSLAVSLGERATINCKSSQSLLNSGNQRNYLTWYQQKPGQPPKLLIYWASTRESGVPDRFSGSGSGTDFTLTISSLQAEDVAVYYCQNDYSFPFTFGQGTKLEIKR |  |  |  | 1.46
9D1-LD-57 (antibody, human IgG1, kappa, V domains shown, LD-57 linker-drug (MMAE) on partially reduced interchain cysteines (Conjugation Method 2, DAR 4)) VH: QIQLVQSGAEVKKPGASVKISCKASGYSFTDYHMNWVRQAPGKGLEWIGNIDPYYGSPTYNHKFKGRVTLTVDTSTSTAYMELSSLRSEDTAVYYCANYGRGNSFPYWGQGTLVTVSS VL: DIVMTQSPSSLAVSLGERATINCKSSQSLLNSGNQRNYLTWYQQKPGQPPKLLIYWASTRESGVPDRFSGSGSGTDFTLTISSLQAEDVAVYYCQNDYSFPFTFGQGTKLEIKR | 0.53 | 0.053 |  | 
9D1-LD-66 (antibody, human IgG1, kappa, V domains shown, LD-66 linker-drug (Exatecan) on reduced interchain cysteines (Conjugation Method 1, DAR 8)) VH: QIQLVQSGAEVKKPGASVKISCKASGYSFTDYHMNWVRQAPGKGLEWIGNIDPYYGSPTYNHKFKGRVTLTVDTSTSTAYMELSSLRSEDTAVYYCANYGRGNSFPYWGQGTLVTVSS VL: DIVMTQSPSSLAVSLGERATINCKSSQSLLNSGNQRNYLTWYQQKPGQPPKLLIYWASTRESGVPDRFSGSGSGTDFTLTISSLQAEDVAVYYCQNDYSFPFTFGQGTKLEIKR | 1.09 | 0.996 | 0.996 | 
9D1-LD-12 (antibody, human IgG1, kappa, V domains shown, LD-12 linker-drug (Exatecan) on reduced interchain cysteines (Conjugation Method 1, DAR 8)) VH: QIQLVQSGAEVKKPGASVKISCKASGYSFTDYHMNWVRQAPGKGLEWIGNIDPYYGSPTYNHKFKGRVTLTVDTSTSTAYMELSSLRSEDTAVYYCANYGRGNSFPYWGQGTLVTVSS VL: DIVMTQSPSSLAVSLGERATINCKSSQSLLNSGNQRNYLTWYQQKPGQPPKLLIYWASTRESGVPDRFSGSGSGTDFTLTISSLQAEDVAVYYCQNDYSFPFTFGQGTKLEIKR | 0.799 | 0.58 |  | 
9D1-LD-37 (antibody, human IgG1, kappa, V domains shown, LD-37 linker-drug (Exatecan) on reduced interchain cysteines (Conjugation Method 1, DAR 8)) VH: QIQLVQSGAEVKKPGASVKISCKASGYSFTDYHMNWVRQAPGKGLEWIGNIDPYYGSPTYNHKFKGRVTLTVDTSTSTAYMELSSLRSEDTAVYYCANYGRGNSFPYWGQGTLVTVSS VL: DIVMTQSPSSLAVSLGERATINCKSSQSLLNSGNQRNYLTWYQQKPGQPPKLLIYWASTRESGVPDRFSGSGSGTDFTLTISSLQAEDVAVYYCQNDYSFPFTFGQGTKLEIKR | 0.802 |  |  | 
9D1-LD-89 (antibody, human IgG1, kappa, V domains shown, LD-89 linker-drug (Exatecan) on reduced interchain cysteines (Conjugation Method 1; DAR printed as 1 in Table 1)) VH: QIQLVQSGAEVKKPGASVKISCKASGYSFTDYHMNWVRQAPGKGLEWIGNIDPYYGSPTYNHKFKGRVTLTVDTSTSTAYMELSSLRSEDTAVYYCANYGRGNSFPYWGQGTLVTVSS VL: DIVMTQSPSSLAVSLGERATINCKSSQSLLNSGNQRNYLTWYQQKPGQPPKLLIYWASTRESGVPDRFSGSGSGTDFTLTISSLQAEDVAVYYCQNDYSFPFTFGQGTKLEIKR |  |  |  | 0.757
9D1-LD-74 (antibody, human IgG1, kappa, V domains shown, LD-74 linker-drug (Exatecan, polysarcosine side chain) on reduced interchain cysteines (Conjugation Method 1, DAR 8)) VH: QIQLVQSGAEVKKPGASVKISCKASGYSFTDYHMNWVRQAPGKGLEWIGNIDPYYGSPTYNHKFKGRVTLTVDTSTSTAYMELSSLRSEDTAVYYCANYGRGNSFPYWGQGTLVTVSS VL: DIVMTQSPSSLAVSLGERATINCKSSQSLLNSGNQRNYLTWYQQKPGQPPKLLIYWASTRESGVPDRFSGSGSGTDFTLTISSLQAEDVAVYYCQNDYSFPFTFGQGTKLEIKR | 2.22 | 1.16 |  | 
9D1-LD-72 (antibody, human IgG1, kappa, V domains shown, LD-72 linker-drug (Exatecan) on reduced interchain cysteines (Conjugation Method 1, DAR 8)) VH: QIQLVQSGAEVKKPGASVKISCKASGYSFTDYHMNWVRQAPGKGLEWIGNIDPYYGSPTYNHKFKGRVTLTVDTSTSTAYMELSSLRSEDTAVYYCANYGRGNSFPYWGQGTLVTVSS VL: DIVMTQSPSSLAVSLGERATINCKSSQSLLNSGNQRNYLTWYQQKPGQPPKLLIYWASTRESGVPDRFSGSGSGTDFTLTISSLQAEDVAVYYCQNDYSFPFTFGQGTKLEIKR | 1.08 | 0.553 |  | 
9D1-LD-65 (antibody, human IgG1, kappa, V domains shown, LD-65 linker-drug (Exatecan) on reduced interchain cysteines (Conjugation Method 1, DAR 8)) VH: QIQLVQSGAEVKKPGASVKISCKASGYSFTDYHMNWVRQAPGKGLEWIGNIDPYYGSPTYNHKFKGRVTLTVDTSTSTAYMELSSLRSEDTAVYYCANYGRGNSFPYWGQGTLVTVSS VL: DIVMTQSPSSLAVSLGERATINCKSSQSLLNSGNQRNYLTWYQQKPGQPPKLLIYWASTRESGVPDRFSGSGSGTDFTLTISSLQAEDVAVYYCQNDYSFPFTFGQGTKLEIKR | 1.61 | 0.701 | 0.086 | 
9D1-LD-71 (antibody, human IgG1, kappa, V domains shown, LD-71 linker-drug (SN38) on reduced interchain cysteines (Conjugation Method 1, DAR 8)) VH: QIQLVQSGAEVKKPGASVKISCKASGYSFTDYHMNWVRQAPGKGLEWIGNIDPYYGSPTYNHKFKGRVTLTVDTSTSTAYMELSSLRSEDTAVYYCANYGRGNSFPYWGQGTLVTVSS VL: DIVMTQSPSSLAVSLGERATINCKSSQSLLNSGNQRNYLTWYQQKPGQPPKLLIYWASTRESGVPDRFSGSGSGTDFTLTISSLQAEDVAVYYCQNDYSFPFTFGQGTKLEIKR |  |  | 0.397 | 
9D1-LD-82 (antibody, human IgG1, kappa, V domains shown, LD-82 linker-drug (structure, preparation and DAR not described in the filing)) VH: QIQLVQSGAEVKKPGASVKISCKASGYSFTDYHMNWVRQAPGKGLEWIGNIDPYYGSPTYNHKFKGRVTLTVDTSTSTAYMELSSLRSEDTAVYYCANYGRGNSFPYWGQGTLVTVSS VL: DIVMTQSPSSLAVSLGERATINCKSSQSLLNSGNQRNYLTWYQQKPGQPPKLLIYWASTRESGVPDRFSGSGSGTDFTLTISSLQAEDVAVYYCQNDYSFPFTFGQGTKLEIKR |  |  |  | 8.01
